Laboratory results: publication PMC11567960

How the values were obtained:
[1] = biological target: cynomolgus monkey CD47 recombinant protein (cynomolgus monkey); assay: ELISA
[2] = biological target: human CD47 recombinant protein (human) (UniProt Q08722); assay: ELISA
Chain of UniProt Q08722 (Q08722 19-323): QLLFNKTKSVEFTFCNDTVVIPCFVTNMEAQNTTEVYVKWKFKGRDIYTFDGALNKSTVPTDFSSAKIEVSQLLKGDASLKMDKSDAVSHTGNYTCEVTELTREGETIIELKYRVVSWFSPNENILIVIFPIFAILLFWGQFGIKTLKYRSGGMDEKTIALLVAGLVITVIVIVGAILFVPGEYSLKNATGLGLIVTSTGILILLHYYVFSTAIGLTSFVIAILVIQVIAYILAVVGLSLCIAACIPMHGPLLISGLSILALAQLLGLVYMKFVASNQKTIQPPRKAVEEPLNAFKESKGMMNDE

EC50 [1]: 1.02 nM
EC50 [2]: 0.59 nM
Substance: HX009 (bispecific antibody)
